Assay results: the supplement of paper PMC9732359
± gives the uncertainty stated by the source.

assay: protein stability index of a GFP-peptide fusion (yeast GPS) (PSI 1-4); higher = more stable; sorted into four equal gates, so the index is relative within each strain; conditions: san1∆
Summary of the method: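 Yeast carrying a pooled library were grown to mid-log phase in leucine-free medium. Each library plasmid expresses Cherry and has a tiled 17-residue yeast protein peptide fused downstream of GFP. Cells were sorted into four equal gates by GFP/Cherry ratio, and plasmids from each gate were PCR-amplified, Illumina-sequenced and assigned to strains by barcode. Summing, across gates, the read frequency times the gate number gave each peptide's protein stability index.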

Sequence	protein stability index
EFTPADPNLSFESSSSL [SSN2]	2.39 ± 0.16

same assay, conditions: ubr1∆

Sequence	protein stability index
DLVKPKNPKFSNAFYSV [SMC4]	2.82 ± 0.067
DLWNNFGNIMDNLLEMS [RRP6]	2.95 ± 0.11
DMIKCFLPKLNSVRNSL [NUT1]	2.18 ± 0.035
DMLLHKYYIVSSSKSMI [SRB8]	1.61 ± 0.079
DMSKILVDQGFNYSGKD [RET1]	3.49 ± 0.042
DMVKLDINPPLVFILAV [RRP42]	2.19 ± 0.035
DNEDSDNLFGETESSVS [SWI3]	2.93 ± 0.085
DNETKAMLINLILRDFL [RPN3]	2.81 ± 0.075
DNLGQTKIIMATNRPDT [RPT4]	2.67 ± 0.079
DNVVRFLNEARDKAGRL [RPO21]	1.76 ± 0.053
DPFSIYGFSNKEYISRL [SNF5]	2.34 ± 0.075
DPLLAGLGETSGDNHTQ [RPT4]	3.25 ± 0.16
DPNNPVDFDGLDIKRVG [SNF12]	3.25 ± 0.063
DPSRELNVIIDQLAVSP [YCS4]	2.67 ± 0.05
DPTKVTEFEFYLLEELE [SSN8]	3.25 ± 0.049
DPVSGAILVPMTVNDQP [YJR042W/NUP85]	2.4 ± 0.085
DQAELPNNASSHISASA [SNF2]	2.35 ± 0.063
DQAIVTETKRLVVIRFG [DIB1]	2.45 ± 0.067
DQGNGWLYVYETPNQDA [RPN6]	2.38 ± 0.037
DQKETKKGESEKDASGK [YOR098C/NUP1]	3.37 ± 0.1
DQLLTDLIETSFTCFAQ [NUT1]	2.91 ± 0.074
DQYIQKQVQISHHLKAD [YGL172W/NUP49]	3.07 ± 0.057
DRAIRKTCQWYSEHLKP [DIS3]	3.3 ± 0.12
DRETALDFIGRRGTALG [RPB2]	2.14 ± 0.066
DRKDQDDRDHFGKKRLD [RPB2]	3.39 ± 0.086

Sequence	protein stability index
DRKKDKNVKHSGNIQLD [RPL12A]	3.18 ± 0.096
DRKNRAPPQRPRFNRDN [RPS26B]	3.04 ± 0.16
DRQCMIMDELLSSIAER [DIB1]	2.68 ± 0.052
DRSKLKKGVRVTLDITT [RPT4]	2.57 ± 0.14
DRSKPVALTSFLGYKAG [RPL3]	2.09 ± 0.036
DRVIFRVPIRSEYKVAF [PRP8]	2.42 ± 0.034
DRVKVIECFKPGDIVRA [CSL4]	2.36 ± 0.16
DSAAIIAATGLNQINGL [GRR1]	2.96 ± 0.073
DSADVPAFSNSNGFNNV [YMR153W/NUP53]	3.23 ± 0.048
DSDELGGESMEGPKKCI [SNM1]	3.4 ± 0.071
DSDKGSKLNELKKELKL [SMC2]	3.33 ± 0.17
DSENFSFEKLYEGMKLG [YMR129W/POM152]	3.29 ± 0.074
DSFIFDGTAKEVGDEAD [MED4]	3.11 ± 0.051
DSLISGVKQKITIQLTR [BRR2]	1.63 ± 0.073
DSNESDDDVTPSTKVAS [YLR335W/NUP2]	3.54 ± 0.12
DSSMTTVQENELLKSSL [AAR2]	2.94 ± 0.13
DSSVEDSTDNENSGKEM [LIN1]	2.99 ± 0.031
DSTPEEVSCKLLETITY [YML103C/NUP188]	2.79 ± 0.092
DSTVNKSITLKGRNNES [YDL088C/ASM4]	3.21 ± 0.079
DTFRAGAFDQLKQNAIR [SRP54]	3.09 ± 0.076
DTFRWVGKKSAPEKDIW [RPO31]	3.15 ± 0.061
DTKLRLEKSKNECQRLQ [YIL149C/MLP2]	2.87 ± 0.04
DTLDGDLMDDMSDISDL [RPN3]	2.14 ± 0.1
DTPTSGKHNLTIWCVCD [BRR2]	3.08 ± 0.082
DTQFTKLLDDNPTEFDW [SRB8]	2.91 ± 0.043

Sequence	protein stability index
DTSLCINGEPSIHVNRV [RRI1]	3.04 ± 0.05
DVDMEDRNLTEFDSTDT [RRI1]	3.01 ± 0.055
DVEDDDKETQLKKRAVS [POP7]	2.5 ± 0.21
DVLKVNTLVRPNGTKKA [RPL25]	3.26 ± 0.067
DVTPISMFGSDQKTGRA [RPN4]	2.95 ± 0.069
DYNKKQDRIQDVKLVLA [MED1]	2.28 ± 0.072
DYTLQDIICEDSTLILE [RPB2]	2.15 ± 0.072
EAEMAYVKAVSDKAQLN [SMC4]	2.26 ± 0.05
EAIDGNGEIKGENIDAD [SNF2]	3.25 ± 0.12
EAKKFEPTYRLVRYGLA [RPS24A]	2.88 ± 0.049
EANFDLINIDTSIANAF [RPC40]	3.07 ± 0.043
EASKKSAVKPRPLKLER [FAS1]	3.05 ± 0.11
ECENEIKTKQMSLKKCQ [SMC2]	3.32 ± 0.058
ECLQAYIFFGPIYYQKL [RET1]	2.72 ± 0.05
ECPLDPGGYFIVNGTEK [RET1]	3.29 ± 0.082
ECPVGEFLINEGTPINN [RPN14]	2.31 ± 0.085
EDDDIRSRMLPTITLDD [SNF5]	3.44 ± 0.14
EDEDEDDETPSCEVEEI [SNU114]	2.85 ± 0.044
EDEGEELTDEYLAENPD [PRP8]	3.34 ± 0.092
EDETVKVAQLRQTGPAK [NSL1]	3.67 ± 0.11
EDFAPLLAEEEELILPN [PRP8]	2.78 ± 0.1
EDFMDIPKPRTAGKTSV [SNF2]	3.08 ± 0.06
EDGRTLSDYNIQKESTL [RPS31]	3.01 ± 0.09
EDILQGIFNLLNTLFNP [NUT1]	2.3 ± 0.075
EDIVGALRRRVGPSEQN [REC8]	2.43 ± 0.075

Sequence	protein stability index
EDNEMLEDLFSYRNGMA [YJR042W/NUP85]	1.95 ± 0.079
EDVLVNQILMSVNFFVS [RPL1A]	2.23 ± 0.035
EDVVAISSRTYGQRAVL [RPS0B]	3.1 ± 0.049
EDYAIVTKGGTVENPLR [PRP28]	3.44 ± 0.078
EEAAGTKMFEDRREKAE [SMC2]	3.6 ± 0.11
EEAGEEEAKEEVTEEQA [RPS0A]	3.64 ± 0.092
EEEATMTTSAVSPTVGK [YIL149C/MLP2]	3.2 ± 0.035
EEESLHVFQYANRPRLV [RPC37]	2.21 ± 0.047
EEFAYVDPARRQILFKY [MED6]	2.06 ± 0.053
EEGEFIIDLYSLPEGLL [TAF14]	3.52 ± 0.063
EEITCALDYLIPPPMPK [MED7]	2.28 ± 0.071
EEKGWVPVTKLGRLVKA [RPS2]	3.48 ± 0.072
EELILPNTKDAMSLYHS [PRP8]	2.8 ± 0.042
EELLLKDLEIRKLEISS [GAL11]	1.09 ± 0.12
EENSQGNILDFNLNLPP [REC8]	3.01 ± 0.079
EEQEEEPDREKIKLLTQ [RPC19]	2.65 ± 0.23
EEQEKINSAPDFTQEDE [ISW2]	3.55 ± 0.067
EEQKIVKKVVKEQTEAA [RPL34A]	3.13 ± 0.15
EETDEVSSESSDEAIIP [SIR3]	2.82 ± 0.043
EETNVDIGVLEEYARRL [SMC4]	3.48 ± 0.1
EEVMRIALMGQDNKKIY [ESC2]	2.64 ± 0.051
EFDRRILKKSLMTSHTK [RTT102]	3.29 ± 0.093
EFNGFSLYQVDPSGSYF [PRE8]	2.43 ± 0.077
EFTPADPNLSFESSSSL [SSN2]	2.79 ± 0.15
